{"source": "patent US20160340421A1", "about": "(Regeneron, published 2016)", "binders": {"B1": {"name": "H4H1657N2 (antibody, V domains shown)", "VH": "EVQVLESGGDLVQPGGSLRLSCAASGFTFSAYAMTWVRQAPGKGLEWVSAISGSGGSAYYADSVKGRFTISRDNSKNTVYLQMNSLRAEDTAVYYCAKDGAWKMSGLDVWGQGTTVIVSS", "VL": "DIQMTQSPASLSASVGDRVTITCRASQDISDYLAWYQQKPGKIPRLLIYTTSTLQSGVPSRFRGSGSGTDFTLTISSLQPEDVATYYCQKYDSAPLTFGGGTKVEIK", "notes": "captured by anti-hFc, so human Fc"}}, "key": {"[1]": {"biological_target": "T1, hGDF8 peptide 1 (1-14), unmodified (human)", "T1 peptide": "DFGLDCDEHSTESR", "assay": "Luminex peptide beads", "text": "(§1) Fourteen peptides (Table 10) were generated from mature hGDF8 (SEQ ID NO:340). Unmodified peptides, N-terminal biotinylated peptides (N-term), or C-terminal biotinylated peptides (C-term) were used to test and localize antibody binding. Full-length hGDF8, hGDF11 and unmodified peptides were each individually amine-coupled to xMAP® Multi-Analyte COOH Microspheres (or beads). Each of the biotinylated peptides was bound to xMAP® Multi-Analyte LumAvidin Microspheres. Peptide-bound beads suspension were then mixed with an equal volume of blocking buffer (PBS, 1%13SA, 0.05% Tween20, 0.05% Sodium azide) and then distributed into a 96 well filter plate (Millipore, MULTISCREEN® BV). Control and test anti-hGDF8 antibodies, at 2.5 μg/ml were then added to the peptide-bound beads suspension and were allowed to bind to the beads at RT, overnight. The antibody-incubated beads were then washed twice with PBST (PBS+0.05% Tween20) and incubated with either Phycoerythrin (PE) conjugated anti-hFC or PE-conjugated anti-mFC antibodies at RT for 45 min. The beads were washed again and the antibody binding signal to various peptides were detected with either LUMINEX® 100™ or 200™ instruments."}, "[2]": {"biological_target": "T2, hGDF8 peptide 1 (1-14), N-terminal biotinylated (human)", "T2 construct": "also called peptide 1 N-term", "T2 peptide": "Biotin-DFGLDCDEHSTESR", "assay": "Luminex peptide beads", "text": "as §1"}, "[3]": {"biological_target": "T3, hGDF8 peptide 1 (1-14), C-terminal biotinylated (human)", "T3 construct": "also called peptide 1 C-term", "T3 peptide": "DFGLDCDEHSTESR-biotin", "assay": "Luminex peptide beads", "text": "as §1"}, "[4]": {"biological_target": "T4, hGDF8 peptide 2 (1-18), C-terminal biotinylated (human, cysteine pairing not given here)", "T4 construct": "also called peptide 2 C-term", "T4 peptide": "DFGLDCDEHSTESRCCRY-biotin", "assay": "Luminex peptide beads", "text": "as §1"}, "[5]": {"biological_target": "T5, hGDF8 peptide 3 (17-42), N-terminal biotinylated (human, N-terminal biotin)", "T5 construct": "also called peptide 3 N-term", "T5 peptide": "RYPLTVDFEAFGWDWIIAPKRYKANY", "assay": "Luminex peptide beads", "text": "as §1"}, "[6]": {"biological_target": "T6, hGDF8 peptide 4 (48-65), unmodified (human)", "T6 peptide": "EFVFLQKYPHTHLVHQAN", "assay": "Luminex peptide beads", "text": "as §1"}, "[7]": {"biological_target": "T7, hGDF8 peptide 4 (48-65), C-terminal biotinylated (human)", "T7 construct": "also called peptide 4 C-term", "T7 peptide": "EFVFLQKYPHTHLVHQAN-biotin", "assay": "Luminex peptide beads", "text": "as §1"}, "[8]": {"biological_target": "T8, hGDF8 peptide 5 (48-69), unmodified (human)", "T8 peptide": "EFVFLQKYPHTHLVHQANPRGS", "assay": "Luminex peptide beads", "text": "as §1"}, "[9]": {"biological_target": "T9, hGDF8 peptide 5 (48-69), C-terminal biotinylated (human, C-terminal biotin)", "T9 construct": "also called peptide 5 C-term", "T9 peptide": "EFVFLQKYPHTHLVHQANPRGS", "assay": "Luminex peptide beads", "text": "as §1"}, "[10]": {"biological_target": "T10, hGDF8 peptide 8 (52-72), C-terminal biotinylated (human, C-terminal biotin)", "T10 construct": "also called peptide 8 C-term", "T10 peptide": "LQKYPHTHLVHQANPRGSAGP", "assay": "Luminex peptide beads", "text": "as §1"}, "[11]": {"biological_target": "T11, hGDF8 peptide 9 (56-65), C-terminal biotinylated (human)", "T11 construct": "also called peptide 9 C-term", "T11 peptide": "PHTHLVHQAN-biotin", "assay": "Luminex peptide beads", "text": "as §1"}, "[12]": {"biological_target": "T12, hGDF8 peptide 10 (56-72), unmodified (human)", "T12 peptide": "PHTHLVHQANPRGSAGP", "assay": "Luminex peptide beads", "text": "as §1"}, "[13]": {"biological_target": "T13, hGDF8 peptide 10 (56-72), C-terminal biotinylated (human)", "T13 construct": "also called peptide 10 C-term", "T13 peptide": "PHTHLVHQANPRGSAGP-biotin", "assay": "Luminex peptide beads", "text": "as §1"}, "[14]": {"biological_target": "T14, hGDF8 peptide 11 (65-72), unmodified (human)", "T14 peptide": "NPRGSAGP", "assay": "Luminex peptide beads", "text": "as §1"}, "[15]": {"biological_target": "T15, hGDF8 peptide 12 (73-90), unmodified (human)", "T15 peptide": "CCTPTKMSPINMLYFNGK", "assay": "Luminex peptide beads", "text": "as §1"}, "[16]": {"biological_target": "T16, hGDF8 peptide 12 (73-90), C-terminal biotinylated (human, cysteine pairing not given here)", "T16 construct": "also called peptide 12 C-term", "T16 peptide": "CCTPTKMSPINMLYFNGK-biotin", "assay": "Luminex peptide beads", "text": "as §1"}, "[17]": {"biological_target": "T17, hGDF8 peptide 13 (75-105), N-terminal biotinylated (human, N-terminal biotin)", "T17 construct": "also called peptide 13 N-term", "T17 peptide": "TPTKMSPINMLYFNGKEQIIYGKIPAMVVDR", "assay": "Luminex peptide beads", "text": "as §1"}, "[18]": {"biological_target": "T18, hGDF8 peptide 13 (75-105), C-terminal biotinylated (human, C-terminal biotin)", "T18 construct": "also called peptide 13 C-term", "T18 peptide": "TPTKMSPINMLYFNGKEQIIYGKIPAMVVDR", "assay": "Luminex peptide beads", "text": "as §1"}, "Activin A": {"biological_target": "T19, Activin A (UniProt P08476 311-426)", "T19 sequence (looked up)": "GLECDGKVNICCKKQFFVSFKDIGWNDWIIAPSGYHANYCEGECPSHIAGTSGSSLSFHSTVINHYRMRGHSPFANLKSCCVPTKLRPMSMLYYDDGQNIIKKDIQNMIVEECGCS", "assay": "SPR Biacore T100, 25°C", "experimental": "(§2) Additional antigen binding experiments were conducted in which GDF8 and GDF11 were applied over a surface of selected anti-GDF8 antibodies and control antibodies at 25° C. and 37° C. Equilibrium dissociation constants (KD values) for antigen binding to selected antibodies were determined by surface kinetics using a real-time biosensor surface plasmon resonance assay (BIACORE™ T100). […] Various concentrations (2.5-0.625 nM, 2-fold dilutions) of hGDF8 homodimer or hGDF11 homodimer (or in some experiments, Activin A) were injected over the captured antibody surfaces, and antigen-antibody binding and dissociation were monitored in real time. Kinetic analysis was performed to calculate KD, dissociation rate constants (kd), association rate constants (ka) and half-life of antigen/antibody complex dissociation. (NB=no binding observed)."}, "[19]": {"biological_target": "T20, Human GDF8 homodimer (mature human Growth and Differentiation Factor-8) (human, UniProt O14793 267-375)", "T20 sequence": "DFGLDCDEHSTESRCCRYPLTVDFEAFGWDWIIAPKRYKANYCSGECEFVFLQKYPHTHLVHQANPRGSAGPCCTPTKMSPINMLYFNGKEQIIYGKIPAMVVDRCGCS", "assay": "cell-based or functional assay"}, "[20]": {"biological_target": "T20, Human GDF8 homodimer (mature human …)", "assay": "SPR Biacore T100, captured on anti-hFc, 25°C", "experimental": "as §2"}, "[21]": {"biological_target": "T20, Human GDF8 homodimer (mature human …)", "assay": "SPR Biacore T100, captured on anti-hFc, 37°C", "experimental": "as §2"}, "hGDF11 homodimer": {"biological_target": "T21, hGDF11 homodimer (human, UniProt O95390 299-407)", "T21 sequence (looked up)": "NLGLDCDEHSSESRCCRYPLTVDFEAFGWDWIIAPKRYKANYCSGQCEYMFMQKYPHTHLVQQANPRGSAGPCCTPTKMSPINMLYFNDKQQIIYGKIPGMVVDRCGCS", "assay": "GDF11-inducible luciferase bioassay, 0.4 nM GDF11 (legend: NB=no binding)"}}, "note": "Ends that are not written are not given here. * marks the point of attachment. Biotin = O=C1N[C@H]2[C@H](CS[C@H]2CCCCC(=O)*)N1", "data": [{"binder": "B1", "values": [{"measurement": "binding result", "setting": "[1]", "result": "no binding (tested: 2.5 µg/ml)"}, {"measurement": "binding result", "setting": "[2]", "result": "no binding (tested: 2.5 µg/ml)"}, {"measurement": "binding result", "setting": "[3]", "result": "no binding (tested: 2.5 µg/ml)"}, {"measurement": "binding result", "setting": "[4]", "result": "no binding (tested: 2.5 µg/ml)"}, {"measurement": "binding result", "setting": "[5]", "result": "no binding (tested: 2.5 µg/ml)"}, {"measurement": "binding result", "setting": "[6]", "result": "no binding (tested: 2.5 µg/ml)"}, {"measurement": "binding result", "setting": "[7]", "result": "no binding (tested: 2.5 µg/ml)"}, {"measurement": "binding result", "setting": "[8]", "result": "no binding (tested: 2.5 µg/ml)"}, {"measurement": "binding result", "setting": "[9]", "result": "no binding (tested: 2.5 µg/ml)"}, {"measurement": "binding result", "setting": "[10]", "result": "no binding (tested: 2.5 µg/ml)"}, {"measurement": "binding result", "setting": "[11]", "result": "no binding (tested: 2.5 µg/ml)"}, {"measurement": "binding result", "setting": "[12]", "result": "no binding (tested: 2.5 µg/ml)"}, {"measurement": "binding result", "setting": "[13]", "result": "no binding (tested: 2.5 µg/ml)"}, {"measurement": "binding result", "setting": "[14]", "result": "no binding (tested: 2.5 µg/ml)"}, {"measurement": "binding result", "setting": "[15]", "result": "no binding (tested: 2.5 µg/ml)"}, {"measurement": "binding result", "setting": "[16]", "result": "no binding (tested: 2.5 µg/ml)"}, {"measurement": "binding result", "setting": "[17]", "result": "no binding (tested: 2.5 µg/ml)"}, {"measurement": "binding result", "setting": "[18]", "result": "no binding (tested: 2.5 µg/ml)"}, {"measurement": "binding result", "setting": "Activin A", "result": "no binding (tested: 2.5-0.625 nM)"}, {"measurement": "IC50, luciferase bioassay, 0.5 nM GDF8", "setting": "[19]", "result": 0.78, "unit": "nM"}, {"measurement": "Kd", "setting": "[20]", "result": 0.0283, "unit": "nM"}, {"measurement": "T1/2", "setting": "[20]", "result": 3.37, "unit": "h"}, {"measurement": "Kd", "setting": "[21]", "result": 0.0379, "unit": "nM"}, {"measurement": "T1/2", "setting": "[21]", "result": 1.52, "unit": "h"}, {"measurement": "binding result", "setting": "hGDF11 homodimer", "result": "no binding"}]}]}
